Measurements: patent US11903969

Biological target: CD19 on CD19+ cells (Nalm6-GL, Raji, donor B cells) (UniProt P15391)
Experiment: cell-based or functional assay

Chain of UniProt P15391 (P15391 20-556 limits assumed): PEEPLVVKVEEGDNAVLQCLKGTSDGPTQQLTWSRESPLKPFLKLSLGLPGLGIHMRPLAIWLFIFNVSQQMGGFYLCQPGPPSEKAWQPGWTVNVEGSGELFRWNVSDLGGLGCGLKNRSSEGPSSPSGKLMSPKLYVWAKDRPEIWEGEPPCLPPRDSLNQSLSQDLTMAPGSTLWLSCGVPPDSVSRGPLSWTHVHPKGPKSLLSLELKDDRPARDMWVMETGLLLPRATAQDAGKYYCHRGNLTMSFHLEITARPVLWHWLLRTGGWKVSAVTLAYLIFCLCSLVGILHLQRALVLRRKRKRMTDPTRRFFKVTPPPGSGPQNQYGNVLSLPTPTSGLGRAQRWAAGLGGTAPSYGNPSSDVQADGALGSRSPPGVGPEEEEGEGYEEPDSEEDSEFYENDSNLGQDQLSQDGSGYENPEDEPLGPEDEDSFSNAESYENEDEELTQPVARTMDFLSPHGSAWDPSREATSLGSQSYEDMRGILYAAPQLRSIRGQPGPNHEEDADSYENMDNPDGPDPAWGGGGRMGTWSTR

CD19.28.ζ-CAR (CD19-specific chimeric antigen receptor with FMC63 scFv, CD28 hinge, transmembrane and intracellular sequences and CD3ζ intracellular domain) (from UniProt P10747 114-220; P20963 52-164)
CD19+ cell population (B cells) remaining 24 hours after gene targeting: 2.53%
